These results are taken from publication PMC5095173, “Disulfide-activated protein kinase G Iα regulates cardiac diastolic relaxation and fine-tunes the Frank–Starling response” (Nature Communications, 2016).

For experiment [1], the system named is PKGIα (analogue-sensitive M438G), disulfide-activated. In words: Chemical genetic phosphoproteomic screen, disulfide-activated PKGIα M438G versus unactivated control. The experiment is classed as biochemical, human PKGIα; substrates in rat heart homogenate. The note with it: for log2 fold change Disulfide vs Control: control = PKGIα C42S/M438G; for Log2 fold change in phosphorylation, Disulfide versus control: disulfide-activated PKGIα M438G vs basal, 1 h, 30 °C, pH 7.5, rat heart homogenate, label-free LC–MS/MS, n=4, * P<0.05 Dunnett: only phospholamban S16. The gist of the method:
(§1)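 Analogue-sensitive human PKGIα mutants (M438G, air-oxidized to disulfide dimer; C42S/M438G, cGMP-activated), expressed in 293-F cells, thiophosphorylate substrates in rat left-ventricle lysate (20 mg ml) using N6-alkylated ATPγS. Thiophosphopeptides are recovered by covalent capture and identified with sites by LC–MS/MS, each compared against an unactivated control.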

In experiment [2] the test system is PKGIα (analogue-sensitive C42S/M438G), cGMP-activated. In words: Chemical genetic phosphoproteomic screen, cGMP-activated PKGIα C42S/M438G versus unactivated control. It is filed as biochemical, human PKGIα; substrates in rat heart homogenate. The note with it: for log2 fold change cGMP vs Control: control = PKGIα C42S/M438G; for Log2 fold change in phosphorylation, cGMP versus control: PKGIα C42S/M438G + 100 μM cGMP vs basal, 1 h, 30 °C, pH 7.5, rat heart homogenate, label-free LC–MS/MS, n=4, * P<0.05 Dunnett: all values except phospholamban S16. The gist of the method:
as §1

B1: Fdx1 pS181 (protein, UniProt P24483 65-188, looked up)
Adrenodoxin, mitochondrial: SSSEDKVTVHFKNRDGETLTTKGKVGDSLLDVVIENNLDIDGFGACEGTLACSTCHLIFEDHIYEKLDAITDEENDMLDLAFGLTNRSRLGCQVCLTKAMDNMTVRVPEAVADVRQSVDMSKNS
modifications: phosphorylated at S181
As for B1, the “log2 fold change Disulfide vs Control” value in experiment [1] amounted to 2.723. For the same molecule, in experiment [2], the “log2 fold change cGMP vs Control” value was determined as 5.584.

B2: C-1-tetrahydrofolate synthase, cytoplasmic: PKGIα substrate, phospho site T545 (protein, UniProt P27653 1-935, looked up)
C-1-tetrahydrofolate …: MAPAGILNGKVVSAQIRNRLKTQVTQMQEQVPGFTPGLAILQVGDRDDSNLYINVKLKAAQEIGIKATHIKLPRTSTESEVLKYVISLNEDATVHGFIVQLPLDSENSINTEAVINAIAPEKDVDGLTSINAGKLARGDLKDCFIPCTPKGCLELIKETGVQIAGRHAVVVGRSKIVGAPMHDLLLWNNATVTTCHSKTADLDKEVNKGDILVVATGQPEMVKGEWIKPGAVVIDCGINYVPDDTKPNGRKVVGDVAYDEAKEKASFITPVPGGVGPMTVAMLMQSTVESAQRFLKKFKPGKWTIQYNKLNLKTPVPSDIAISRSCKPKLIGNLAREIGLLTEEVELYGETKAKVLLSALDRLKHQPDGKYVVVTGITPTPLGEGKSTTTIGLVQALGAHLHQNVFACVRQPSQGPTFGIKGGAAGGGYSQVIPMEEFNLHLTGDIHAITAANNLVAAAIDARIFHELTQTDKALFNRLVPSVNGVRKFSDIQIRRLRRLGIEKTDPAALTDDEINRFARLDIDPETITWQRVLDTNDRFLRKITIGQAPTEKGHTRTAQFDISVASEIMAVLALTSSLEDMRARLGKMVVASSKKGEPISCEDLGVSGALTVLMKDAIKPNLMQTLEGTPVFVHAGPFANIAHGNSSIIADRIALKLVGPEGFVVTEAGFGADIGMEKFFNIKCRYSGLQPHVVVLVATVRALKMHGGGPTVTAGLPLPKAYTEEDLDLVEKGFSNLRKQIENARMFGVPVVVAMNAFKTDTDTELDLIGRLSREHGAFDAVKCTHWAEGGQGALALAQAVQRASQAPSSFQLLYDLKLSVEDKIRIIAQKIYGADDIELLPEAQNKAEIYTKQGFGNLPICMAKTHLSLSHNPEQKGVPTGFVLPIRDIRASVGAGFLYPLVGTMSTMPGLPTRPCFYDIDLDPETEQVNGLF
modifications: phosphorylated at T545
Take B2: in experiment [1], the “Log2 fold change in phosphorylation, Disulfide versus control” value is 1.48. Further, the “Log2 fold change in phosphorylation, cGMP versus control” value (from here on “Log2 fold change … cGMP versus control”) in experiment [2] is given as 3.68*.

B3: 1-phosphatidylinositol 4,5-bisphosphate phosphodiesterase gamma-1: PKGIα substrate, phospho site S1233 (protein, UniProt P10686 2-1290, looked up)
1-phosphatidylinositol …: AGVGTPCANGCGPSAPSEAEVLHLCRSLEVGTVMTLFYSKKSQRPERKTFQVKLETRQITWSRGADKIEGSIDIREIKEIRPGKTSRDFDRYQEDPAFRPDQSHCFVILYGMEFRLKTLSLQATSEDEVNMWIKGLTWLMEDTLQAATPLQIERWLRKQFYSVDRNREDRISAKDLKNMLSQVNYRVPNMRFLRERLTDFEQRSGDITYGQFAQLYRSLMYSAQKTMDLPFLETNTLRTGERPELCQVSLSEFQQFLLEYQGELWAVDRLQVQEFMLSFLRDPLREIEEPYFFLDELVTFLFSKENSVWNSQLDAVCPETMNNPLSHYWISSSHNTYLTGDQFSSESSLEAYARCLRMGCRCIELDCWDGPDGMPVIYHGHTLTTKIKFSDVLHTIKEHAFVASEYPVILSIEDHCSIAQQRNMAQHFRKVLGDTLLTKPVDIAADGLPSPNQLKRKILIKHKKLAEGSAYEEVPTSVMYSENDISNSIKNGILYLEDPVNHEWYPHYFVLTSSKIYYSEETSSDQGNEDEEEPKEASGSTELHSSEKWFHGKLGAGRDGRHIAERLLTEYCIETGAPDGSFLVRESETFVGDYTLSFWRNGKVQHCRIHSRQDAGTPKFFLTDNLVFDSLYDLITHYQQVPLRCNEFEMRLSEPVPQTNAHESKEWYHASLTRAQAEHMLMRVPRDGAFLVRKRNEPNSYAISFRAEGKIKHCRVQQEGQTVMLGNSEFDSLVDLISYYEKHPLYRKMKLRYPINEEALEKIGTAEPDYGALYEGRNPGFYVEANPMPTFKCAVKALFDYKAQREDELTFTKSAIIQNVEKQDGGWWRGDYGGKKQLWFPSNYVEEMINPAILEPEREHLDENSPLGDLLRGVLDVPACQIAIRPEGKNNRLFVFSISMPSVAQWSLDVAADSQEELQDWVKKIREVAQTADARLTEGKMMERRKKIALELSELVVYCRPVPFDEEKIGTERACYRDMSSFPETKAEKYVNKAKGKKFLQYNRLQLSRIYPKGQRLDSSNYDPLPMWICGSQLVALNFQTPDKPMQMNQALFMAGGHCGYVLQPSTMRDEAFDPFDKSSLRGLEPCVICIEVLGARHLPKNGRGIVCPFVEIEVAGAEYDSTKQKTEFVVDNGLNPVWPAKPFHFQISNPEFAFLRFVVYEEDMFSDQNFLAQATFPVKGLKTGYRAVPLKNNYSEDLELASLLIKIDIFPAKENGDLSPFSGTSLRERASDASSQLFHVRAREGSFEARYQQPFEDFRISQEHLADHFDSRERRAPRRTRVNGDNRL
modifications: phosphorylated at S1233
Consider B3, for which the “Log2 fold change in phosphorylation, Disulfide versus control” value in experiment [1] is on record as 1.82. In experiment [2], the “Log2 fold change … cGMP versus control” value was 4.50*.

B4: 6-phosphofructokinase, liver type: PKGIα substrate, phospho site S775 (protein, UniProt P30835 2-780, looked up)
ATP-dependent …: ATVDLEKLRMSGAGKAIGVLTSGGDAQGMNAAVRAVTRMGIYVGAKVFLIYEGYEGLVEGGENIKPANWLSVSNIIQLGGTIIGSARCKAFTTREGRLAAAYNLLQHGITNLCVIGGDGSLTGANIFRNEWGSLLEELVKEGKISESTAQNYAHLSIAGLVGSIDNDFCGTDMTIGTDSALHRIMEVIDAITTTAQSHQRTFVLEVMGRHCGYLALVSALASGADWLFIPEAPPEDGWENFMCERLGETRSRGSRLNIIIIAEGAIDRHGKPISSSYVKDLVVQRLGFDTRVTVLGHVQRGGTPSAFDRVLSSKMGMEAVMALLEATPDTPACVVSLSGNQSVRLPLMECVQVTKDVQKAMDEKRFDEAIQLRGRSFENNWKIYKLLAHQKVSKEKSNFSLAILNVGAPAAGMNAAVRSAVRTGISEGHTVYVVHDGFEGLAKGQVQEVGWHDVAGWLGRGGSMLGTKRTLPKPHLEAIVENLRTYNIHALLVIGGFEAYEGVLQLVEARGRYEELCIVMCVIPATISNNVPGTDFSLGSDTAVNAAMESCDRIKQSASGTKRRVFIVETMGGYCGYLATVTGIAVGADAAYVFEDPFNIHDLKANVEHMTEKMKTDIQRGLVLRNEKCHEHYTTEFLYNLYSSEGRGVFDCRTNVLGHLQQGGAPTPFDRNYGTKLGVKAMLWMSEKLRDVYRKGRVFANAPDSACVIGLRKKVVAFSSVTELKKETDFEHRMPREQWWLNLRLMLKMLAHYRISMADYVSGELEHVTRRTLSIDKGF
modifications: phosphorylated at S775
Turning to B4, the “Log2 fold change in phosphorylation, Disulfide versus control” value in experiment [1] turned out to be 1.48. The “Log2 fold change … cGMP versus control” value in experiment [2] was 4.13*.

B5: Pfkl pS775 (protein, UniProt P30835 2-780, looked up)
ATP-dependent …: ATVDLEKLRMSGAGKAIGVLTSGGDAQGMNAAVRAVTRMGIYVGAKVFLIYEGYEGLVEGGENIKPANWLSVSNIIQLGGTIIGSARCKAFTTREGRLAAAYNLLQHGITNLCVIGGDGSLTGANIFRNEWGSLLEELVKEGKISESTAQNYAHLSIAGLVGSIDNDFCGTDMTIGTDSALHRIMEVIDAITTTAQSHQRTFVLEVMGRHCGYLALVSALASGADWLFIPEAPPEDGWENFMCERLGETRSRGSRLNIIIIAEGAIDRHGKPISSSYVKDLVVQRLGFDTRVTVLGHVQRGGTPSAFDRVLSSKMGMEAVMALLEATPDTPACVVSLSGNQSVRLPLMECVQVTKDVQKAMDEKRFDEAIQLRGRSFENNWKIYKLLAHQKVSKEKSNFSLAILNVGAPAAGMNAAVRSAVRTGISEGHTVYVVHDGFEGLAKGQVQEVGWHDVAGWLGRGGSMLGTKRTLPKPHLEAIVENLRTYNIHALLVIGGFEAYEGVLQLVEARGRYEELCIVMCVIPATISNNVPGTDFSLGSDTAVNAAMESCDRIKQSASGTKRRVFIVETMGGYCGYLATVTGIAVGADAAYVFEDPFNIHDLKANVEHMTEKMKTDIQRGLVLRNEKCHEHYTTEFLYNLYSSEGRGVFDCRTNVLGHLQQGGAPTPFDRNYGTKLGVKAMLWMSEKLRDVYRKGRVFANAPDSACVIGLRKKVVAFSSVTELKKETDFEHRMPREQWWLNLRLMLKMLAHYRISMADYVSGELEHVTRRTLSIDKGF
modifications: phosphorylated at S775
B5: the “log2 fold change Disulfide vs Control” value in experiment [1] is listed as 1.482. The “log2 fold change cGMP vs Control” value in experiment [2] is listed as 4.1288.

B6: Alpha-2-macroglobulin receptor-associated protein: PKGIα substrate, phospho site S245 (protein, UniProt Q99068 34-360, looked up)
Alpha-2-macroglobulin …: HGGKYSREKNEPEMAAKRESGEEFRMEKLNQLWEKAKRLHLSPVRLAELHSDLKIQERDELNWKKLKVEGLDGDGEKEAKLVHNLNVILARYGLDGRKDTQTVHSNALNEDTQDELGDPRLEKLWHKAKTSGKFSSEELDKLWREFLHYKEKIHEYNVLLDTLSRAEEGYENLLSPSDMTHIKSDTLASKHSELKDRLRSINQGLDRLRKVSHQGYGPATEFEEPRVIDLWDLAQSANFTEKELESFREELKHFEAKIEKHNHYQKQLEISHQKLKHVESIGDPEHISRNKEKYVLLEEKTKELGYKVKKHLQDLSSRVSRARHNEL
modifications: phosphorylated at S245
For the molecule B6, the “Log2 fold change in phosphorylation, Disulfide versus control” value in experiment [1] stood at 0.32. Also, the “Log2 fold change … cGMP versus control” value in experiment [2] was 2.64*.
